Assay [1] has as its target prokineticin receptor(s) of guinea pig ileum (ileal membranes; ileal longitudinal smooth muscle) (guinea pig). In words: cell-based or functional assay.
In assay [2] the target is prokineticin receptor expressed endogenously on M2A7 melanoma cells (ATCC CRL-2500). In words: cell-based or functional assay.
The target of assay [3] is prokineticin receptor(s) of guinea pig ileum (ileal membranes; ileal longitudinal smooth muscle) (guinea pig). In words: displacement of 125I-prokineticin 1 (20 pM) from guinea pig ileal membranes, low-affinity site.
Assay [4] has the same target. In words: displacement of 125I-prokineticin 1 (20 pM) from guinea pig ileal membranes, high-affinity site.
The target is the same in assay [5]. In words: competition radioligand binding on guinea pig ileal membranes, filtration; displaced tracer 125I-prokineticin 1 (20 pM).
For assay [6] the target is unchanged. Description: displacement of 125I-prokineticin 1 (20 pM) from guinea pig ileal membranes, two-site model, high-affinity site.
The target is the same in assay [7]. In words: displacement of 125I-prokineticin 1 (20 pM) from guinea pig ileal membranes, two-site model, low-affinity site.
Assay [8] has the same target. In words: saturation binding of 125I-prokineticin 1 to guinea pig ileal membranes, Scatchard analysis, two-site model, low-affinity site.
Assay [9] shares this target. Description: saturation binding of 125I-prokineticin 1 to guinea pig ileal membranes, two-site model, low-affinity site.
For assay [10] the target is unchanged. In words: saturation binding of 125I-prokineticin 1 to guinea pig ileal membranes, Scatchard analysis, two-site model, high-affinity site.
For assay [11] the target is unchanged. In words: saturation binding of 125I-prokineticin 1 to guinea pig ileal membranes, two-site model, high-affinity site.

B1: chimeric prokineticin 21 (exons 1 and 2 of prokineticin 2, exon 3 of prokineticin 1) (ligand)
chain: AVITGACDKDSQCGGGMCCAVSIWVKSIRICTPMGKLGDSCHPLTRKVPFFRKRKHHTCPCLPNLLCSRFPDGRYRCSMDLKNINF
For the molecule B1, in assay [1], the EC50 of ileal contraction, fold against prokineticin 1 or prokineticin 2 turned out to be 8 fold and the time constant to midway contraction of ileal strips stood at 40 min.

B2: recombinant refolded human prokineticin 2 (unlabeled), 6×His-tagged (ligand)
chain: AVITGACDKDSQCGGGMCCAVSIWVKSIRICTPMGKLGDSCHPLTRKVPFFGRRMHHTCPCLPGLACLRTSFNRFICLAQKHHHHHH
For B2, the EC50 of calcium mobilization in M2A7 melanoma cells (FLIPR) in [2] was 21 nM. In assay [1], this molecule had an ED50 of contraction of guinea-pig ileum longitudinal muscle of 0.9 nM and a time constant to midway contraction of ileal strips of 15 min. The Ki in assay [3] was determined as 1.22 nM. The Ki in assay [4] came to 4.2 pM. This molecule also showed an IC50 (read off the curve) in assay [5] of 4 nM.

B3: recombinant refolded human prokineticin 1 (unlabeled), 6×His-tagged (ligand)
chain: AVITGACERDVQCGAGTCCAISLWLRGLRMCTPLGREGEECHPGSHKVPFFRKRKHHTCPCLPNLLCSRFPDGRYRCSMDLKNINFHHHHHH
Regarding B3, the EC50 of calcium mobilization in M2A7 melanoma cells (FLIPR) in assay [2] worked out at 12 nM. The molecule also registered an ED50 of contraction of guinea-pig ileum longitudinal muscle in [1] of 0.46 nM. Further, the time constant to midway contraction of ileal strips in [1] was 15 min. For the same molecule, the values for the Ki in [6] and in assay [7] were 8 pM and 1.5 nM, respectively. In [5], this molecule gave an IC50 (read off the curve) of 5 nM.

B4: 125I-prokineticin 1 (iodinated recombinant human prokineticin 1) (ligand)
chain: B3 chain
modifications: 125I label by the iodogen method; iodinated residue(s) not stated
For the molecule B4, the Kd in [8] came out at 0.227 nM; in assay [10], 5 pM. In addition, the results for the Bmax (fmol/mg of protein) in assay [9] and in assay [11] were 26.4 and 7.8, respectively.

B5: chimeric prokineticin 12 (exons 1 and 2 of prokineticin 1, exon 3 of prokineticin 2) (ligand)
chain: AVITGACERDVQCGAGTCCAISLWLRGLRMCTPLGREGEECHPGSHKVPFFGRRMHHTCPCLPGLACLRTSFNRFICLAQK
B5 showed a time constant to midway contraction of ileal strips in assay [1] of 40 min.

Values taken from patent publication US20050074758A1.
